Here are results for two molecules from paper PMC9053816, “A polypeptide model for toxic aberrant proteins induced by aminoglycoside antibiotics” (PLoS ONE, 2022).

*: point of attachment. FITC = O=C1OC2(c3ccc(O)cc3Oc3cc(O)ccc32)c2ccc(NC(=S)*)cc21

The target of the experiment is T1, 6His-DnaK (E. coli DnaK protein) (E. coli, UniProt P0A6Y8 1-638).
T1 construct: molecular chaperone DnaK of E. coli, from the ASKA expression clone; The functional rows concern endogenous DnaK in E. coli BL21 cells; source: purified from the ASKA expression clone by chromatography on Ni-NTA agarose
T1 sequence (P0A6Y8 whole entry): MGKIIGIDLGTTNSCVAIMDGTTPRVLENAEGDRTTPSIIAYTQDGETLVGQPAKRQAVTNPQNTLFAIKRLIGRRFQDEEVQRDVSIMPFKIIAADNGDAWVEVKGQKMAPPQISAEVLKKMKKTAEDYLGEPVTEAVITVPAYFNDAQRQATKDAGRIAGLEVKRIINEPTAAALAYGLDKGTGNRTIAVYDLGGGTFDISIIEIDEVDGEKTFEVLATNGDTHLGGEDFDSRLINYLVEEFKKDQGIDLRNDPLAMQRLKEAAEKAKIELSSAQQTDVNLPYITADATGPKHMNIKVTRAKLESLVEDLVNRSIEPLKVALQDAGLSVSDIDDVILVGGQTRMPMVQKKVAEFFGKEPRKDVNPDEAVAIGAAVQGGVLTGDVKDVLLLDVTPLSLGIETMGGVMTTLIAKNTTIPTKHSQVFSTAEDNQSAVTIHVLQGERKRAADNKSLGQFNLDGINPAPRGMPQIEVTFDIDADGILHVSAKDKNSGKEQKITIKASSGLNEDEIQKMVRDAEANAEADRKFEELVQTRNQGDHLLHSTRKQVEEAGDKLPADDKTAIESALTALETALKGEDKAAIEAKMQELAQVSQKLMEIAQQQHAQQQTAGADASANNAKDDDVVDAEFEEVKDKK
Kind of experiment: MST; 20 nM fluorescein-labelled peptide incubated with varying concentrations of DnaK; 50 mM Tris pH 7.4, 150 mM NaCl, 10 mM MgCl2, 0.05% Tween-20, 0.05% BSA; 1 h at 20°C; Monolith NT.115; three independent trials. As to conditions: both partners purified.

B1: KL peptide, FITC-TEKAKLVIKLLALGKTEQ (KL decapeptide of ARF48 with flanking extensions) (peptide)
peptide: {FITC}-TEKAKLVIKLLALGKTEQ-NH2
notes: ARF48 is encoded by a +1 alternate reading frame of an Arabidopsis thaliana cDNA and is not a natural protein; The core decapeptide comes from an aberrant alternate-frame polypeptide, not from a natural protein; also called synthetic KL decapeptide; source: synthetic peptide (Peptide 2.0, Inc.)
As to B1, the binding result is “binds”.

B2: NR peptide, FITC-TEKANRLLLTGKTEQ (canonical DnaK peptide substrate NRLLLTG with flanking extensions) (peptide)
peptide: {FITC}-TEKANRLLLTGKTEQ-NH2
notes: canonical DnaK peptide substrate NRLLLTG flanked by the N-terminal extension TEKA and the C-terminal extension KTEQ; source: synthetic peptide (Peptide 2.0, Inc.)
As for B2, the binding result is given as “binds”.
